{
  "source": "paper PMC5399792",
  "key": {"[1]": {"molecular_target": "T1, influenza B polymerase (PA-PB1-PB2 heterotrimer, FluB) (Influenza B virus, UniProt Q5V8Z9;Q5V8Y6;Q5V8X3 1-726;1-752;1-770)", "assay": "fluorescence anisotropy; 1:1 stoichiometry", "conditions": "protein: recombinant, copies: 1;1;1"}, "[2]": {"molecular_target": "T1, influenza B polymerase (PA-PB1-PB2 …)", "assay": "FRET / fluorescence titration", "conditions": "protein: recombinant; copies: 1;1;1; label: 3'-FAM-Ex-5 on v5'; 5'-Cy3 on v3' (implied by FRET)"}, "[3]": {"molecular_target": "T1, influenza B polymerase (PA-PB1-PB2 …)", "assay": "X-ray crystallography (3.8 A)", "conditions": "protein: recombinant, copies: 1;1;1"}, "[4]": {"conditions": "label: FAM-Ex-5, 5' hook hairpin on polymerase"}},
  "data": [
    {"binder": "AGCAGAAGCAGAGGUAUA (ssRNA)", "note": "[c5' 1-18]", "values": [
      {"measurement": "Kd", "setting": "[1]; [4]", "value": "< 0.01", "unit": "µM"}
    ]},
    {"binder": "AGUAGUAACAAGAGGGUA (ssRNA)", "note": "[v5' 1-18]", "values": [
      {"measurement": "Kd", "setting": "[1]; [4]", "value": "< 0.01", "unit": "µM"}
    ]},
    {"binder": "v5' 1-10 + v3' 1-18 (mixed) RNA 1: AGUAGUAACA RNA 2: UAUACCUCUGCUUCUGCU", "values": [
      {"measurement": "binding result", "setting": "[2]", "value": "binds"}
    ]},
    {"binder": "AGUAGUAACA (ssRNA)", "note": "[v5' 1-10]", "values": [
      {"measurement": "Kd", "setting": "[1]; label: 3'-FAM-Ex-5, 5' hook hairpin on polymerase", "value": "< 0.01", "unit": "µM"}
    ]},
    {"binder": "vRNA promoter v5' 1-14 + v3' 1-18 (crystal) (structured_RNA, 5'-monophosphate on v5') RNA 1: AGUAGUAACAAGAG RNA 2: UAUACCUCUGCUUCUGCU", "values": [
      {"measurement": "binding result", "setting": "[3]", "value": "binds"}
    ]},
    {"binder": "AAUCUAUAAUAGC (ssRNA, 5'-m7Gppp cap)", "note": "[capped 13-mer primer]", "values": [
      {"measurement": "binding result", "setting": "[3]; single strand", "value": "binds"}
    ]},
    {"binder": "UAUACCUCUGCUUCUGCU (ssRNA)", "note": "[v3' 1-18]", "values": [
      {"measurement": "Kd", "setting": "[1]; label: 5'-FAM-Ex-5, single strand", "value": "< 0.01", "unit": "µM"}
    ]},
    {"binder": "UACCCUCUUGUUACUACU (ssRNA)", "note": "[c3' 1-18]", "values": [
      {"measurement": "Kd", "setting": "[1]; label: FAM-Ex-5, single strand", "value": "< 0.01", "unit": "µM"}
    ]}
  ]
}
